Earlier results as cited in article PMC12860966.
pKi: −log10 of the molar value.

Target: MMP-9 (Homo sapiens) (UniProt P14780)
Sequence of UniProt P14780 (P14780 94-707): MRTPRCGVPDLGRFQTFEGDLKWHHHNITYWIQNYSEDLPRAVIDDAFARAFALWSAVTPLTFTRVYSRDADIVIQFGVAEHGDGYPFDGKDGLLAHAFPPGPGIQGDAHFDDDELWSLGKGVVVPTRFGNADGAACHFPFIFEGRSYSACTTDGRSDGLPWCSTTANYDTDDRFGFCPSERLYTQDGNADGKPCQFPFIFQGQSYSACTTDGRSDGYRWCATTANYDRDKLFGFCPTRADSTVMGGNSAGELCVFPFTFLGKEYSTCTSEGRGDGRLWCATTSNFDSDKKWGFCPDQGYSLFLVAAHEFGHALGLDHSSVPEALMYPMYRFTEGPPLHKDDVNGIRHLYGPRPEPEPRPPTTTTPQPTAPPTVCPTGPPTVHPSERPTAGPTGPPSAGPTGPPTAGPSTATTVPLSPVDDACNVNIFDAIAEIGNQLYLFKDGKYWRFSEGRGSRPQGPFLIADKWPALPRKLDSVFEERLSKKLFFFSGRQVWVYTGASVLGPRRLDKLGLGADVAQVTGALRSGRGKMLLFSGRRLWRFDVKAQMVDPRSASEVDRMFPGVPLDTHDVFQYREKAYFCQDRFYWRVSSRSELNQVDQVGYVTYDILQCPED

pKi: 8.47
Substance: TIMP-1 (from UniProt P01033)
